Experimental data: article PMC8068644

Experiment: immunoblot, full-length as % of total β1AR, CHO-Pro5
Settings: glycan lost

Substance | other: N-terminal proteolytic cleavage, other: decrease in full-length β1AR (control: WT-β1AR) [%] | other: N-terminal proteolytic cleavage, other: decrease in full-length β1AR (control: 31H32A/52A53A-β1AR) [%]
β1-adrenergic receptor (β1AR): S41A | 56.8 | –
β1-adrenergic receptor (β1AR): S37A | 21.7 | –
β1-adrenergic receptor (β1AR): S41A in 31H32A/52A53A backbone | – | 69.7
